We go through one molecule from article PMC10328973.

The target of this test is UKNP5.2.1 E2E1-I53-50A trimer (hepatitis C virus genotype 5, strain UKNP5.2.1).

B1: chimeric HEPC74 HC – VRC01 LC (antibody, V domains shown)
VH: QVQLVQSGAEVKKPGSSVKVSCTTSGGTYINYAISWVRQAPGQGLEWVGGMSPISNTPKYAQKFQGRVTITADESTSTTYMELSSLRPEDTAVYYCARDLLKYCGGGNCHSLLVDPWGQGTLVTVSS
VL: EIVLTQSPGTLSLSPGETAIISCRTSQYGSLAWYQQRPGQAPRLVIYSGSTRAAGIPDRFSGSRWGPDYNLTISNLESGDFGVYYCQQYEFFGQGTKVQVD
On to B1, for which the neutralisation of UKNP5.2.1 HCVpp, IC50 (the only HCVpp neutralised) turned out to be 4.4 µg/mL.
